Results on 7 variants are retold here after article PMC8571082.

The chains are these.
B1: factor inhibiting HIF-1 (FIH-1), full-length [human] / Mint3NT, N-terminal fragment (1–214) of Mint3 [human] (parent)
chain 1: MDFPTISRSPSGPPAMDLEGPRDILVPSEDLTPDSQWDPMPGGPGSLSRMELDESSLQELVQQFEALPGDLVGPSPGGAPCPLHIATGHGLASQEIADAHGLLSAEAGRDDLLGLLHCEECPPSQTGPEEPLEPAPRLLQPPEDPDEDSDSPEWVEGASAEQEGSRSSSSSPEPWLETVPLVTPEEPPAGAQSPETLASYPAPQEVPGPCDHED
chain 2: MAATAAEAVASGSGEPREEAGALGPAWDESQLRSYSFPTRPIPRLSQSDPRAEELIENEEPVVLTDTNLVYPALKWDLEYLQENIGNGDFSVYSASTHKFLYYDEKKMANFQNFKPRSNREEMKFHEFVEKLQDIQQRGGEERLYLQQTLNDTVGRKIVMDFLGFNWNWINKQQGKRGWGQLTSNLLLIGMEGNVTPAHYDEQQNFFAQIKGYKRCILFPPDQFECLYPYPVHHPCDRQSQVDFDNPDYERFPNFQNVVGYETVVGPGDVLYIPMYWWHHIESLLNGGITITVNFWYKGAPTPKRIEYPLKAHQKVAIMRNIEKMLGEALGNPQEVGPLLNTMIKGRYN

Variants of B1 are the subject of the assay. Description: ITC. As to conditions: with Mint3NT, measured three times for each FIH-1 mutant.
Consider chain 2 D248A, for which the screen value was -28.4 kcal/mol.

Take chain 2 E250A: the screen value was 20.1 kcal/mol.

As for chain 2 K75A, the screen value came to 20.2 kcal/mol.

On to chain 2 E79A, for which the screen value is -28.5 kcal/mol.

On to chain 2 E29A, for which the screen value is 19.5 kcal/mol.

Consider chain 2 Y71A, for which the screen value is -28.9 kcal/mol.

Consider chain 2 N171A, for which the screen value stood at 21.4 kcal/mol.
